Experimental data from article PMC3936849 (2014).

Experiments:
Experiment in all cases: SPR
[1] = target: T1, ActRIIb extracellular domain, C-terminal Fc-tagged chimera (UniProt Q13705 19-137)
T1 chain: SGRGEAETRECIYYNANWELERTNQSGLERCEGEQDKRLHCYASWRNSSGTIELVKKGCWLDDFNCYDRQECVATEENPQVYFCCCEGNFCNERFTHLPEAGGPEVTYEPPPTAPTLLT

[2] = target: T2, BMPRII extracellular domain, C-terminal Fc-tagged chimera (UniProt Q13873 27-150)
T2 chain: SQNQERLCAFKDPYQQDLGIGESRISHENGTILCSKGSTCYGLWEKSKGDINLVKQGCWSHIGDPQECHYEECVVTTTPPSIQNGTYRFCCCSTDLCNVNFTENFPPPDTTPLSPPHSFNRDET

[3] = target: T3, ActRIIa extracellular domain, C-terminal Fc-tagged chimera (UniProt P27037 20-135)
T3 sequence (P27037 20-135, change not shown): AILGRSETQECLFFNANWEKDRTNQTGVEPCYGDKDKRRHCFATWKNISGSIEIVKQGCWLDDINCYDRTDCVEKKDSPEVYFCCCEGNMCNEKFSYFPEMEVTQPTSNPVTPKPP

[4] = target: T4, ALK1 extracellular domain, C-terminal Fc-tagged chimera (UniProt P37023 22-118)
T4 sequence (P37023 22-118, change not shown): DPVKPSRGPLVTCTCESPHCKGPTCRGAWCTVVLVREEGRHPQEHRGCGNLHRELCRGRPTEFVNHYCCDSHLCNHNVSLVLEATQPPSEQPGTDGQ

[5] = target: T1, ActRIIb extracellular domain, …
[6] = target: T2, BMPRII extracellular domain, C-terminal …
[7] = target: T3, ActRIIa extracellular domain, …; remark: listed apart in the source
[8] = target: T4, ALK1 extracellular domain, C-terminal …; remark: listed apart in the source

koff [1]: 0.00152 s⁻¹
koff [2]: 0.00153 s⁻¹
koff [3]: 0.0121 s⁻¹
koff [4]: 0.000884 s⁻¹
Kd [5]: 0.154 nM
Kd [6]: 0.33 nM
Kd [7]: 4.27 nM
Kd [8]: 0.209 nM
B1: MB109 (E. coli-derived mature domain of human bone morphogenetic protein-9, refolded functional dimer) (ligand)
chain: MSAGAGSHCQKTSLRVNFEDIGWDSWIIAPKEYEAYECKGGCFFPLADDVTPTKHAIVQTLVHLKFPTKVGKACCVPTKLSPISVLYKDDMGVPTLKYHYEGMSVAECGCR
